Broadly, the Kd is the free concentration of one partner at which half of the binding sites on the other are occupied at equilibrium, for simple one-to-one binding.

Assay [1] concerns the target D1-10-N1. Nature of the assay: ELISA.
Assay [2] concerns the target D2-14-N1. As to the kind of experiment: ELISA.
The target of assay [3] is D3-03-N1. Nature of the assay: ELISA. For orientation: ELISA stands for enzyme-linked immunosorbent assay.
The target of assay [4] is D3-12-N1. Nature of the assay: ELISA.
The target of assay [5] is D3-23-N1. As to the kind of experiment: ELISA.
For assay [6], the target named is D3-24-N1. Nature of the assay: ELISA.
For assay [7], the target named is D2-14-N1 (human). As to the kind of experiment: SPR. A general note: Surface plasmon resonance follows binding to a sensor surface in real time, without labels.
D2-14-N1 (human), sequence (heavy, as listed by the source): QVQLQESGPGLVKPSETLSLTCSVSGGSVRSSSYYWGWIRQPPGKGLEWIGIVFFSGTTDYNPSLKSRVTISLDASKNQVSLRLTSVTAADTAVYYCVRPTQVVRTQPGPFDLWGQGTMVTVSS

Regarding “recombinant full-length IsdB (from UniProt Q2FHV2) Y165R”, the percent of parent in assay [1] was 3%; in assay [2], 3%; in assay [3], 3%; in assay [4], 3%; in assay [5] it was 3%; in assay [6], 5%.
With “recombinant full-length IsdB (natural protein)”, the dissociation constant Kd in assay [7] fell in the range of 4 to 12 pM.

These data come from PMC5120205.
